Laboratory results: paper PMC314469, “Protein Interaction Networks by Proteome Peptide Scanning” (PLoS Biology, 2004)

T1: amphyphisin SH3 (AMPH_HUMAN), P49418
T1 chain: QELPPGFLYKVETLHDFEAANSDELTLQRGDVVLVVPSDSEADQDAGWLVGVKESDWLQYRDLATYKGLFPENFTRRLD


What was measured:
[1] = target: T1, amphyphisin SH3 (AMPH_HUMAN), P49418; experiment: SPOT array
[2] = target: endophilin SH3 (SH3G2_HUMAN), Q99962; experiment: SPOT array

Binder | normalised SPOT signal, Boehringer light units (BLU); mean over the file's lines of this peptide [1] | normalised SPOT signal, Boehringer light units (BLU); mean over the file's lines of this peptide [2]
EDKALPRPIRPHRN [O75163 272-285] | 483 | 22.8
EDPPPTRPSRPWRD [Q9UIG4 62-75] | 6800 | 382
EDRLPRRPARSGGP [Q9UGK6 43-56] | 9000 | 9090
EDSIPKRPVSSIPL [Q8WTV4 223-236] | 33.5 | 55.6
AETRPHRPPGARDS [Q9H021 747-761] | 218 | 1440
EDVKPFKPPLSDAE [Q9UJV1 144-158] | 41.5 | 58.1
EDVLLRRPKSTPDM [Q9NUD7 336-349] | 38.7 | 16.2
EEAALKRPEIISTV [Q9NU22 363-376] | 18 | 15.2
EEAQIFRPLKFNTT [Q15029 572-585] | 83.5 | 75.8
EEASFRRPHPDGDV [Q9UBD0 73-86] | 39.7 | 0.7
EEEELARPPREQGQ [Q14767 745-758] | 154 | 150
EEEPPRRPRARSSE [O60301 1-14] | 4.2 | 26.3
EEIALERPEKEIRN [Q9H5F4 313-326] | 122 | 0
EEKVPEKPPTPKES [Q9HDC5 18-32] | 25 | 21.3
EEPKILRPPRRPRK [Q9NYS8 1484-1497] | 12700 | 508
AFPRPKRPAPAQEA [Q9BQ84 248-261] | 145 | 154
EERALRRPGHLYLL [Q8WZ07 124-137] | 38.2 | 14.7
EERPLRRPRPVQRT [Q9H7J2 535-548] | 836 | 678
EESLPKRPLGKHSK [Q8WYQ9 81-94] | 32.4 | 201
EEVPPHKPPTLPLD [Q9BXF3 1468-1482] | 28.7 | 59.8
EEVVPPRPPLPRSY [CAD38934 123-137] | 109 | 8260

Binder | normalised SPOT signal, Boehringer light units (BLU); mean over the file's lines of this peptide [1] | normalised SPOT signal, Boehringer light units (BLU); mean over the file's lines of this peptide [2]
EFGLPGRPGRPGLN [P39059 904-917] | 282 | 141
EGAAPRRPGFWGSL [Q92988 19-32] | 29.7 | 1570
EGAVPRRPEDALLL [Q96ML3 90-103] | 72.5 | -0
EGEEPKRPPGISER [Q9NS96 504-517] | 23.2 | 21.4
EGHALRRPPPRWLL [Q8WUK7 5-18] | 66.6 | 0
AFVNFRRPEDARAA [Q96T37 218-231] | 17.2 | 51.2
EGHRPRRPRGALPP [Q9UGQ7 111-124] | 27.1 | 2060
EGIPFRRPSTYGIP [P78347 404-417] | 42.6 | 40.3
EGISLRRPNSFGIA [O95444 608-621] | 27.1 | 51.5
EGLAFRRPAEYDPK [O95444 171-184] | 29.1 | 39.5
EGNKPQRPPPPRRP [Q04118 252-266] | 5630 | 18200
EGNRPKKPPPPSAP [Q9NYR0 332-346] | 53.4 | 2130
EGPSPARPPRRRTS [Q9Y5L9 2452-2466] | 16700 | 5340
EGQQLVRPKKLPLI [Q9H2U9 25-38] | 87.3 | 70
EGSMLRRPRTSSQH [Q92538 1455-1468] | 115 | 443
EGTEPRRPRAGPEE [P18887 302-315] | 36.7 | 4.9
AGLRPPKPPRPASL [O75190 254-268] | 2380 | 12300
EGTYPRRPGSSPKV [Q9UJX9 322-335] | 54.8 | 73.1
EGVPFRRPSTFGIP [P78347 776-789] | 31.2 | 112
EHPEPKRPSVDSLV [Q9C0I2 974-987] | 50.2 | 0
EHPRLRRPMPWLLL [Q9Y5I4 12-25] | 85.8 | 783
